Reference: publication PMC8240853 (The Journal of Cell Biology, 2021)
Several values for one entry are separate records, joined by “and”; a condition that tells them apart may be missing. Equal entries are not always repeated.

Assays:
[1] = target: WDR62 WD40 domain, 1-790 (UniProt O43379); test: streptavidin pull-down, GFP Western blot; settings: reference: wild-type C3 fragment; sites T1053
[2] = target: WDR62-N2-GFP (human)
[3] = target: microtubules of porcine brain tubulin (porcine) (UniProt P02550); test: binding to microtubules in vitro
[4] = target: Strep-p80 WD (UniProt Q8BG40 1-315); test: pull-down
Sequence of Strep-p80 WD (Q8BG40 1-315): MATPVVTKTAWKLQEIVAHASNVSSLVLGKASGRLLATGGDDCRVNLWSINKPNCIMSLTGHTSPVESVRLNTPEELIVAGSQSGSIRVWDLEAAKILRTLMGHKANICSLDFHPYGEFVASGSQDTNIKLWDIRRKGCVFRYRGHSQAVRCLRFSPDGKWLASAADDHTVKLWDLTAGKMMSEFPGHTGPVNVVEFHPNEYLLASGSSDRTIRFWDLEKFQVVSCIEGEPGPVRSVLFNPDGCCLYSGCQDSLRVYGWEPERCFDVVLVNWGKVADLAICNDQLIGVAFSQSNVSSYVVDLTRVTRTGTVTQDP

[5] = target: T1, Strep-TagBFP-TPX2 (human, UniProt Q9ULW0-1 1-747); test: recruitment to microtubules in vitro
T1 sequence: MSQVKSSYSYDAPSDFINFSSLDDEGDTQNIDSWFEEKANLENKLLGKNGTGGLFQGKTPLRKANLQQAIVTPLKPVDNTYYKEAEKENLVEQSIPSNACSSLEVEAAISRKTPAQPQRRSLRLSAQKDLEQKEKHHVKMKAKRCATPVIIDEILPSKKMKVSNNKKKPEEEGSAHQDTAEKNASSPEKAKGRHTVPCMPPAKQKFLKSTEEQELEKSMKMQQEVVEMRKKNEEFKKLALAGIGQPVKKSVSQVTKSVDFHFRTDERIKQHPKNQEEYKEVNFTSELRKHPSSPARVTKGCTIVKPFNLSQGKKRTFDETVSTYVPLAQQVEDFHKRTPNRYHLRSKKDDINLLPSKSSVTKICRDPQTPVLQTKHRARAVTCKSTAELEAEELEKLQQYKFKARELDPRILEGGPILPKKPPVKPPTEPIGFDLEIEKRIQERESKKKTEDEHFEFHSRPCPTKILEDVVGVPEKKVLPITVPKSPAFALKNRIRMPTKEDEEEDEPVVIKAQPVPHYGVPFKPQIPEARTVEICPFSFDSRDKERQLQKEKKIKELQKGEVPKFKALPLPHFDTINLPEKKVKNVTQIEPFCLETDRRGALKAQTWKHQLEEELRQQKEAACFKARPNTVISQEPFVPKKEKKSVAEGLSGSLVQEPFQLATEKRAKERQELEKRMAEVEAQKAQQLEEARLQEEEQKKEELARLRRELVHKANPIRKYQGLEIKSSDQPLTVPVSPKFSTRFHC

[6] = target: WDR62 FL WT-GFP-Strep (human, UniProt O43379-4 1-1523); test: recruitment to microtubules in vitro

## WDR62 C3, 1001-1523 (from UniProt O43379) C3 T1053A
[1]
  binding against the reference: lost

## p60/TagBFP-p80 R615A (from UniProt O43379-4;Q8BG40) (complex)
[2]
  breakage frequency of WDR62 N2-decorated curved MTs in live MRC5 cells: 95%

## WDR62 WD-GFP-Strep (from UniProt O43379-4 1-790) (domain or fragment)
[3]
  fold affinity for GMPCPP-stabilized MTs against the FL protein: 4 fold and 5 fold

## p60/TagBFP-p80 (from UniProt O43379-4;Q8BG40) (complex)
[2]
  breakage frequency of WDR62 N2-decorated curved MTs in live MRC5 cells: 95%

## LAFHAKRSYQPHGRWAERAGQEPLKTILDAQDLDCYFTPMKPES (domain or fragment) [trxA-6xHis-WDR62 M1]
[4]
  binding result: binds

B1: Strep-GFP–Aurora A (natural protein)
chain: MDRSKENCISGPVKATAPVGGPKRVLVTQQFPCQNPLPVNSGQAQRVLCPSNSSQRIPLQAQKLVSSHKPVQNQKQKQLQATSVPHPVSRPLNNTQKSKQPLPSAPENNPEEELASKQKNEESKKRQWALEDFEIGRPLGKGKFGNVYLAREKQSKFILALKVLFKAQLEKAGVEHQLRREVEIQSHLRHPNILRLYGYFHDATRVYLILEYAPLGTVYRELQKLSKFDEQRTATYITELANALSYCHSKRVIHRDIKPENLLLGSAGELKIADFGWSVHAPSSRRTTLCGTLDYLPPEMIEGRMHDEKVDLWSLGVLCYEFLVGKPPFEANTYQETYKRISRVEFTFPDFVTEGARDLISRLLKHNPSQRPMLREVLEHPWITANSSKPSNCQNKESASKQS
[5]
  binding result: binds

B2: TPX2/TagBFP–Aurora A complex (complex)
chain 1: MSQVKSSYSYDAPSDFINFSSLDDEGDTQNIDSWFEEKANLENKLLGKNGTGGLFQGKTPLRKANLQQAIVTPLKPVDNTYYKEAEKENLVEQSIPSNACSSLEVEAAISRKTPAQPQRRSLRLSAQKDLEQKEKHHVKMKAKRCATPVIIDEILPSKKMKVSNNKKKPEEEGSAHQDTAEKNASSPEKAKGRHTVPCMPPAKQKFLKSTEEQELEKSMKMQQEVVEMRKKNEEFKKLALAGIGQPVKKSVSQVTKSVDFHFRTDERIKQHPKNQEEYKEVNFTSELRKHPSSPARVTKGCTIVKPFNLSQGKKRTFDETVSTYVPLAQQVEDFHKRTPNRYHLRSKKDDINLLPSKSSVTKICRDPQTPVLQTKHRARAVTCKSTAELEAEELEKLQQYKFKARELDPRILEGGPILPKKPPVKPPTEPIGFDLEIEKRIQERESKKKTEDEHFEFHSRPCPTKILEDVVGVPEKKVLPITVPKSPAFALKNRIRMPTKEDEEEDEPVVIKAQPVPHYGVPFKPQIPEARTVEICPFSFDSRDKERQLQKEKKIKELQKGEVPKFKALPLPHFDTINLPEKKVKNVTQIEPFCLETDRRGALKAQTWKHQLEEELRQQKEAACFKARPNTVISQEPFVPKKEKKSVAEGLSGSLVQEPFQLATEKRAKERQELEKRMAEVEAQKAQQLEEARLQEEEQKKEELARLRRELVHKANPIRKYQGLEIKSSDQPLTVPVSPKFSTRFHC
chain 2: MDRSKENCISGPVKATAPVGGPKRVLVTQQFPCQNPLPVNSGQAQRVLCPSNSSQRIPLQAQKLVSSHKPVQNQKQKQLQATSVPHPVSRPLNNTQKSKQPLPSAPENNPEEELASKQKNEESKKRQWALEDFEIGRPLGKGKFGNVYLAREKQSKFILALKVLFKAQLEKAGVEHQLRREVEIQSHLRHPNILRLYGYFHDATRVYLILEYAPLGTVYRELQKLSKFDEQRTATYITELANALSYCHSKRVIHRDIKPENLLLGSAGELKIADFGWSVHAPSSRRTTLCGTLDYLPPEMIEGRMHDEKVDLWSLGVLCYEFLVGKPPFEANTYQETYKRISRVEFTFPDFVTEGARDLISRLLKHNPSQRPMLREVLEHPWITANSSKPSNCQNKESASKQS
[6]
  binding result: binds
